These results are taken from US20140363428A1 (Chugai, published 2014).

Numbering of substitutions follows the chain as printed.

B1: IgG1-F1353 (antibody)
heavy: QVQLQESGPGLVKPSETLSLTCAVSGHSISHDHAWSWVRQPPGEGLEWIGFISYSGITNYNPSLQGRVTISRDNSKNTLYLQMNSLRAEDTAVYYCARSLARTTAMDYWGEGTLVTVSSASTKGPSVFPLAPSSKSTSGGTAALGCLVKDYFPEPVTVSWNSGALTSGVHTFPAVLQSSGLYSLSSVVTVPSSSLGTQTYICNVNHKPSNTKVDKKVEPKSCDKTHTCPPCPAPELRGGPKVFLFPPKPKDTLYISRTPEVTCVVVDVSHEDPEVKFNWYVDGVEVHNAKTKPREEQYNSTYRVVSVLTVLHQDWLNGKEYKCKVSNKALPAPIEKTISKAKGQPREPQVYTLPPSRDELTKNQVSLTCLVKGFYPSDIAVEWESNGQPENNYKTTPPVLDSDGSFFLYSKLTVDKSRWQQGNVFSCSVMHEALDYHTTRKELSLSP
light: not shown
B2: IgG1-F1377 (antibody)
heavy: B1 heavy with T258E, D435H, T438V, R440Q, E442S
light: not shown
B3: IgG1-F1428 (antibody)
heavy: B1 heavy with T258E, S306E, V310P, T438V
light: not shown
B4: IgG1-F1424 (antibody)
heavy: B1 heavy with T258E, V304E, V310P, T438V
light: not shown
B5: IgG1-F1422 (antibody)
heavy: B1 heavy with T258E, V310P, T438V
light: not shown
B6: IgG1-F1359 (antibody)
heavy: B1 heavy with S256T, D435H, T438F
light: not shown
B7: IgG1-F1368 (antibody)
heavy: B1 heavy with S256T, T258E, D435H, T438F, R440K
light: not shown
B8: IgG1-F1425 (antibody)
heavy: B1 heavy with T258E, V305D, V310P, T438V
light: not shown
B9: IgG1-F1423 (antibody)
heavy: B1 heavy with T258E, V304D, V310P, T438V
light: not shown
B10: IgG1-F1426 (antibody)
heavy: B1 heavy with T258E, V305E, V310P, T438V
light: not shown
B11: IgG1-F1418 (antibody)
heavy: B1 heavy with S256T, T258E, Y436W, T438V
light: not shown
B12: IgG1-F1433 (antibody)
heavy: B1 heavy with T258E, T309D, V310P, T438V
light: not shown
B13: IgG1-F1361 (antibody)
heavy: B1 heavy with S256T
light: not shown
B14: IgG1-F1430 (antibody)
heavy: B1 heavy with T258E, V307E, V310P, T438V
light: not shown
B15: IgG1-F1421 (antibody)
heavy: B1 heavy with R237L, K241S, Y254M, V310P, M430L, D435H, Y436W, T438Y, R440Q, E442S
light: not shown
B16: IgG1-F1365 (antibody)
heavy: B1 heavy with T258E, R440K
light: not shown
B17: IgG1-F1414 (antibody)
heavy: B1 heavy with S256T, T258E, T309Q, T438V, R440K
light: not shown
B18: IgG1-F1370 (antibody)
heavy: B1 heavy with S256T, T258E, T438V, R440K
light: not shown
B19: IgG1-F1411 (antibody)
heavy: QVQLQESGPGLVKPSETLSLTCAVSGHSISHDHAWSWVRQPPGEGLEWIGFISYSGITNYNPSLQGRVTISRDNSKNTLYLQMNSLRAEDTAVYYCARSLARTTAMDYWGEGTLVTVSSASTKGPSVFPLAPSSKSTSGGTAALGCLVKDYFPEPVTVSWNSGALTSGVHTFPAVLQSSGLYSLSSVVTVPSSSLGTQTYICNVNHKPSNTKVDKKVEPKSCDKTHTCPPCPAPELLGGPSVFLFPPKPKDTLMISRTPEVTCVVVDVSHEDPEVKFNWYVDGVEVHNAKTKPREEQYNSTYRVVSVLTPLHQDWLNGKEYKCKVSNKALPAPVEKTISKAKGQPREPQVYTLPPSRDELTKNQVSLTCLVKGFYPSDIAVEWESNGQPENNYKTTPPVLDSDGSFFLYSKLTVDKSRWQQGNVFSCSVLHEALHSHYTQKSLSLSP
light: not shown
B20: IgG1-F1367 (antibody)
heavy: B1 heavy with S256T, T258E, D435H
light: not shown
B21: IgG1-F1366 (antibody)
heavy: B1 heavy with T258E, T438F, R440K
light: not shown
B22: IgG1-F1376 (antibody)
heavy: B1 heavy with S256T, T258E, D435H, T438V, R440Q, E442S
light: not shown
B23: IgG1-F1356 (antibody)
heavy: B19 heavy with G238R, M254Y, P310V, L330R, V334I, L430M, S436Y, Y438V
light: not shown
B24: IgG1-F1434 (antibody)
heavy: B1 heavy with T258E, T309E, V310P, T438V
light: not shown
B25: IgG1-F1362 (antibody)
heavy: B1 heavy with S256T, T438F, R440K
light: not shown
B26: IgG1-F1355 (antibody)
heavy: B1 heavy with T438F
light: not shown
B27: IgG1-F1358 (antibody)
heavy: B1 heavy with S256T, D435H, T438F, R440K
light: not shown
B28: IgG1-F1415 (antibody)
heavy: B1 heavy with S256T, T258E, Q313A, T438V, R440K
light: not shown
B29: IgG1-F1372 (antibody)
heavy: B1 heavy with S256T, T258E
light: not shown
B30: IgG1-F1364 (antibody)
heavy: B1 heavy with T258E, D435H, T438F, R440K
light: not shown
B31: IgG1-F1357 (antibody)
heavy: B1 heavy with S256T, D435H
light: not shown
B32: IgG1-F1375 (antibody)
heavy: B1 heavy with S256T, D435H, T438V, R440Q, E442S
light: not shown
B33: IgG1-F1360 (antibody)
heavy: B1 heavy with S256T, R440K
light: not shown
B34: IgG1-F1373 (antibody)
heavy: B1 heavy with S256T, T258E, T438F, R440K
light: not shown
B35: IgG1-F1417 (antibody)
heavy: B1 heavy with S256T, T258E, Y436W, T438V, R440K
light: not shown
B36: IgG1-F1354 (antibody)
heavy: B1 heavy with T438F, R440K
light: not shown
B37: F1650 (antibody)
chain 1: B1 heavy with S256T, T258E, D435R, T438V, R440K
chain 2: DIQMTQSPSSLSASVGDSVTITCQASTDISSHLNWYQQKPGKAPELLIYYGSHLLSGVPSRFSGSGSGTDFTFTISSLEAEDAATYYCGQGNRLPYTFGQGTKVEIERTVAAPSVFIFPPSDEQLKSGTASVVCLLNNFYPREAKVQWKVDNALQSGNSQESVTEQDSKDSTYSLSSTLTLSKADYEKHKVYACEVTHQGLSSPVTKSFNRGEC
B38: F1648 (antibody)
chain 1: B1 heavy with S256T, T258E, D435P, T438V, E442D
chain 2: B37 chain 2
B39: F1649 (antibody)
chain 1: B1 heavy with S256T, T258E, D435P, T438V, R440K, E442D
chain 2: B37 chain 2
B40: F1646 (antibody)
chain 1: B1 heavy with S256T, T258E, D435K, T438V, R440K, E442D
chain 2: B37 chain 2
B41: F1647 (antibody)
chain 1: B1 heavy with S256T, T258E, D435P, T438V, R440K
chain 2: B37 chain 2
B42: F1644 (antibody)
chain 1: B1 heavy with S256T, T258E, D435K, T438V, R440K
chain 2: B37 chain 2
B43: F1645 (antibody)
chain 1: B1 heavy with S256T, T258E, D435K, T438V, E442D
chain 2: B37 chain 2

The target in one assay is T1, soluble human FcRn (human, UniProt P55899 24-297; P61769 21-119).
T1 construct: Heterodimer of alpha chain and beta2-microglobulin; also called hFcRn
T1 sequence (P55899 24-297 limits assumed, chain 1 of 2): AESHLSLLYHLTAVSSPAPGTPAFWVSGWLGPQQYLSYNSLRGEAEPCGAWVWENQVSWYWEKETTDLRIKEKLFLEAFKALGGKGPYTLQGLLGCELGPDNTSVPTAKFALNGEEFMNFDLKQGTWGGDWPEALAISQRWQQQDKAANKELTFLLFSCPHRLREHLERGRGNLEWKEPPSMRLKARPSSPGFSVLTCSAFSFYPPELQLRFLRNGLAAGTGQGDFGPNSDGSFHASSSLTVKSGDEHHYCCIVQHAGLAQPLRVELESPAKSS
T1 sequence (P61769 21-119 limits assumed, chain 2 of 2): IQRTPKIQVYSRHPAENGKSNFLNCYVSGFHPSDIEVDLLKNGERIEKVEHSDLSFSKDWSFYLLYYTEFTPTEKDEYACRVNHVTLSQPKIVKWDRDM
The experiment in a line: SPR (Biacore), pH 7.0, 25 C.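 Further: antibodies captured on a protein L-coated CM4 chip with human FcRn injected as analyte, KD obtained from ka and kd fitted to sensorgrams, in sodium phosphate buffer.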
Experimental: An appropriate amount of protein L (ACTIGEN) was immobilized onto Sensor chip CM4 (GE Healthcare) by the amino coupling method, and the chip was allowed to capture an antibody of interest. Then, diluted FcRn solutions and running buffer (as a reference solution) were injected to allow human FcRn to interact with the antibody captured on the sensor chip. The running buffer used comprised 50 mmol/l sodium phosphate, 150 mmol/l NaCl, and 0.05% (w/v) Tween20 (pH 7.0). FcRn was diluted using each buffer. The chip was regenerated using 10 mmol/l glycine-HCl (pH 1.5). Assays were carried out exclusively at 25 degrees C. The association rate constant ka (1/Ms) and dissociation rate constant kd (1/s), both of which are kinetic parameters, were calculated based on the sensorgrams obtained in the assays, and KD (M) of each antibody for human FcRn was determined from these values. Each parameter was calculated using Biacore T100 Evaluation Software (GE Healthcare).
B1 registered a Kd of 430 nM.

For the molecule B2, binding was put at a Kd of 83 nM.

Regarding B3, the Kd came out at 15 nM.

The molecule B4 returned a Kd of 16 nM. The Kd values of the last two molecules are within 1.5-fold of each other.

With B5, binding was put at a Kd of 19 nM. This Kd and that of the molecule before are within 1.5-fold of each other.

In turn, B6 yielded a Kd of 130 nM.

As to B7, the Kd is 55 nM.

B8 registered a dissociation constant (Kd) of 19 nM.

As to B9, binding was characterised by a dissociation constant (Kd) of 16 nM.

For the molecule B10, the Kd is 18 nM. The Kd values of the last two molecules are within 1.5-fold of each other.

The molecule B11 gave a Kd of 75 nM. This Kd is about 4.2-fold higher than that of the molecule before.

Take B12: binding was put at a Kd of 45 nM.

For the molecule B13, binding was characterised by a dissociation constant (Kd) of 350 nM.

In turn, B14 showed a Kd of 31 nM.

Molecule B15 displayed an equilibrium dissociation constant (Kd) of 32 nM.

On to B16, for which the Kd was determined as 310 nM.

In turn, B17 had a Kd of 56 nM.

Turning to B18, binding was characterised by a dissociation constant (Kd) of 91 nM.

The molecule B19 came in with a Kd of 170 nM.

In the case of B20, binding was characterised by a dissociation constant (Kd) of 180 nM.

As for B21, binding was put at a Kd of 120 nM. Compared with the last molecule, the Kd is about 1.5-fold lower.

Consider B22, for which the Kd came to 91 nM. This Kd and that of the molecule before are within 1.5-fold of each other.

Consider B23, for which the Kd amounted to 160 nM.

As to B24, binding was characterised by a dissociation constant (Kd) of 36 nM.

Regarding B25, the equilibrium dissociation constant (Kd) is 140 nM.

B26: the Kd amounted to 250 nM.

Turning to B27, the Kd is 91 nM.

Molecule B28 yielded a Kd of 59 nM.

Consider B29, for which the Kd turned out to be 230 nM. Compared with the last molecule, the Kd is about 3.9-fold higher.

The molecule B30 yielded a Kd of 75 nM.

B31 yielded a Kd of 280 nM.

For the molecule B32, the affinity, expressed as Kd, was 100 nM. This Kd lies about 2.8-fold lower than the previous one.

B33 showed a dissociation constant Kd of 310 nM.

Molecule B34 yielded an equilibrium dissociation constant (Kd) of 87 nM.

As to B35, the Kd was 59 nM.

As for B36, the affinity, expressed as Kd, was 230 nM.

A further assay deals with T1, soluble human FcRn. Briefly: SPR (Biacore), pH 7.0.
The molecule B37 returned a Kd of 40 nM.

In the case of B38, binding was characterised by a dissociation constant (Kd) of 38 nM.

As to B39, binding was characterised by a dissociation constant (Kd) of 37 nM.

For B40, the Kd worked out at 35 nM.

B41 gave a Kd of 38 nM.

As to B42, the equilibrium dissociation constant (Kd) was found to be 35 nM. The Kd values of the last two molecules are within 1.5-fold of each other.

In the case of B43, the affinity, expressed as Kd, was 36 nM.

B18 yielded a Kd of 91 nM. Against the preceding molecule, the Kd is about 2.5-fold higher.
